Measured values from US8632989B1, “Mutant insulin degrading enzyme and methods of use” (University of Kentucky Research Foundation, priority 2011, dated 2014).

Experiments:
[1] = tested on: Abz-GGFLRKHGQ-EDDnp; assay: Enzyme activity assay, kinetics of IDE and ATP binding site mutants with fluorogenic substrate; type: biochemical; conditions: Abz-GGFLRKHGQ-EDDnp as substrate; for Hill coefficient / Km / kcat / Vmax: rat IDE; for Vmax: 50 mM Tris-HCl, pH 7.4
Method: Reactions were conducted in 50 mM Tris-HCl, pH 7.4.
(§1) IDE activity was determined by measuring the increase in fluorescence that occurs when the enzyme cleaves the internally quenched fluorogenic substrate Abz-[…]-EDDnp (SEQ ID NO:3) at the R—K bond (Song et al., Journal of Biologial Chemistry 276, 1152-1155 (2001)). The reaction was followed on a SpectraMax Gemini XS fluorescence plate reader using an excitation and emission wavelengths of 318 nm and 419 nm, respectively. Initial velocities were determined using SoftMax Pro 4.0 and kinetic constants calculated using GraphPad Prism 4.0. ATPase activity was measured by following Pi release with acid-molybdate as described by Harder et al. (Harder et al., Biochemical Journal 298 (Pt 2), 395-401 (1994)).

[2] = tested on: Abz-GGFLRKHGQ-EDDnp; assay: Activation by ATP of Abz-[…]-EDDnp hydrolysis, IDE and ATP binding site mutants; type: biochemical; conditions: 10 μM Abz-GGFLRKHGQ-EDDnp as substrate
Method: Activity was determined in 50 mM Tris-HCl, pH 7.4 with 10 μM Abz-[…]-EDDnp (SEQ ID NO:3) as substrate at the indicated concentrations of ATP (panel A), PPPi (panel B) or, TNP-ATP (panel C). Each reaction contained 0.5 μg of enzyme.
as §1

[3] = TNP-ATP fluorescence measurements, IDE and ATP binding site mutants; conditions: 1.5 μM enzyme, 10 μM TNP-ATP, λexc=403 nm
Method: Fluorescence emission spectra were recorded on a Perkin-Elmer LS 55 Luminescence spectrometer with 1.5 μM of IDE, IDE^R429S or IDE^K898A,K899A,S901A in 50 mM Tris-HCl, pH 7.4 with 10 μM TNP-ATP. Fluorescence spectra were recorded with a λexc=403 nm.
TNP-ATP [2′,3′-O-(2,4,6-Trinitrophenyl)adenosine-5′-triphosphate] fluorescence was monitored at excitation and emission wavelengths of 403 nm and 547 nm, respectively, using a Perkin-Elmer LS55 Luminescence Spectrometer at 20±0.1° C. TNP-ATP (Molecular Probes, Inc.) as supplied was diluted to 4 mM with 50 mM Tris-HCl, pH 7.4, and added to achieve the indicated concentrations.

[4] = tested on: Abz-GGFLRKHGQ-EDDnp; assay: Effect of bradykinin on Abz-[…]-EDDnp hydrolysis, IDE and ATP binding site mutants; type: biochemical; conditions: 10 μM substrate, bradykinin as activator
Method: Activity was determined in 50 mM Tris-HCl, pH 7.4 with 10 μM Abz-[…]-EDDnp (SEQ ID NO:3) as substrate and indicated concentrations of bradykinin. Reactions contained 0.5 μg of protein.
as §1

[5] = tested on: Saccharomyces cerevisiae; assay: IDE activity assay in yeast, serial dilution mating test; type: cell-based; conditions: yeast assays
Method: Panel A depicts immunoblot of yeast-expressed IDE and IDE^K898A,K899A,S901A. Equivalent percentage amounts of total cellular extracts from yeast containing an empty expression vector or plasmids encoding IDE or the IDE^K898A,K899A,S901A mutant were analyzed by SDS-PAGE and immunoblotting using an IDE-specific antibody. […] An excess of MATa yeast were mixed with decreasing numbers of MATa cells deficient for Axl1p and Step 23p that were transformed with either an empty expression vector or a vector encoding IDE or IDE^K898A,K899A,S901A as indicated. Mating, which leads to colony growth, is dependent on production of mature a-factor pheromone by plasmid-encoded IDE. […] Concentrated samples of a-factor recovered from yeast bearing the indicated expression vector were spotted at the indicated dilutions on a lawn of RC757 MATa cells, which undergo growth arrest upon exposure to a-factor pheromone. […]
The assays take advantage of the ability of IDE, in lieu of the yeast M16 metallopeptidases Axl1p and Step 23p, to participate in the proteolytic maturation of yeast a-factor mating pheromone. […] Growth of diploid colonies, indicative of mating, was scored 3 days after incubation of plates at 30° C. […] Results of mating tests and halo assays were recorded by scanning plates with a Microtek flatbed scanner and importing digitized images into Photoshop and PowerPoint.

Row | Molecule | Hill coefficient [1] | Km [1] | kcat [1] | Vmax [1] | level of activation by ATP, of the wild type value [2] | fluorescence associated with TNP-ATP binding, relative to wild type IDE [3] | rate of Abz-GGFLRKHGQ-EDDnp hydrolysis with bradykinin, relative to wild type IDE [4] | intracellular function relative to unmodified IDE [5] | kcat relative to wild-type IDE [1]
1 | IDE^K898A,K899A,S901A: Rat IDE residues 41-1019 bearing the mutations K898A, K899A, S901A; ATP binding site mutant (protein, listed as Rattus norvegicus, wild-type Insulin Degrading Enzyme (IDE) from rat) MRNGLVWLLHPALPSTLHSILGARPPPVKRLCGFPKQIYSTMNNPAIQRIEDHIVKSPEDKREYRGLELANGIKVLLISDPTTDKSSAALDVHIGSLSDPPNIPGLSHFCEHMLFLGTKKYPKENEYSQFLSEHAGSSNAFTSGEHTNYYFDVSHEHLEGALDRFAQFFLCPLFDASCKDREVNAVDSEHEKNVMNDAWRLFQLEKATGNPKHPFSKFGTGNKYTLETRPNQEGIDVREELLKFHSTYYSSNLMAICVLGRESLDDLTNLVVKLFSEVENKNVPLPEFPEHPFQEEHLKQLYKIVPIKDIRNLYVTFPIPDLQQYYKSNPGHYLGHLIGHEGPGSLLSELKSKGWVNTLVGGQKEGARGFMFFIINVDLTEEGLLHVEDIILHMFQYIQKLRAEGPQEWVFQECKDLNAVAFRFKDKERPRGYTSKIAGKLHYYPLNGVLTAEYLLEEFRPDLIDMVLDKLRPENVRVAIVSKSFEGKTDRTEQWYGTQYKQEAIPEDVIQKWQNADLNGKFKLPTKNEFIPTNFEILALEKDATPYPALIKDTAMSKLWFKQDDKFFLPKACLNFEFFSPFAYVDPLHCNMAYLYLELLKDSLNEYAYAAELAGLSYDLQNTIYGMYLSVKGYNDKQPILLKKITEKMATFEIDKKRFEIIKEAYMRSLNNFRAEQPHQHAMYYLRLLMTEVAWTKDELKEALDDVTLPRLKAFIPQLLSRLHIEALLHGNITKQAALGVMQMVEDTLIEHAHTKPLLPSQLVRYREVQLPDRGWFVYQRRNEVHNNCGIEIYYQTDMQSTSENMFLELFCQIISEPCFNTLRTKEQLGYIVFSGPRRANGIQGLRFIIQSEKPPHYLESRVEAFLITMEKAIEDMTEEAFQKHIQALAIRRLDKPAALAAECAKYWGEIISQQYNYDRDNIEVAYLKTLSKDDIIKFYKEMLAVDAPRRHKVSVHVLAREMDSCPVVGEFPSQNDINLSEAPPLPQPEVIHNMTEFKRGLPLFPLVKPHINFMAAKL | 1.7 ± 0.1 | 17.3 ± 1 mM | 0.258 ± 0.01 s⁻¹ | 140.8 ± 5.5 nmol/min/mg | even less activation | lower fluorescent yield | significantly reduced | reduced intracellular function | 
2 | IDE^R429S: Rat IDE residues 41-1019 bearing the mutation R429S; ATP binding site mutant (protein, listed as Rattus norvegicus, wild-type Insulin Degrading Enzyme (IDE) from rat) MRNGLVWLLHPALPSTLHSILGARPPPVKRLCGFPKQIYSTMNNPAIQRIEDHIVKSPEDKREYRGLELANGIKVLLISDPTTDKSSAALDVHIGSLSDPPNIPGLSHFCEHMLFLGTKKYPKENEYSQFLSEHAGSSNAFTSGEHTNYYFDVSHEHLEGALDRFAQFFLCPLFDASCKDREVNAVDSEHEKNVMNDAWRLFQLEKATGNPKHPFSKFGTGNKYTLETRPNQEGIDVREELLKFHSTYYSSNLMAICVLGRESLDDLTNLVVKLFSEVENKNVPLPEFPEHPFQEEHLKQLYKIVPIKDIRNLYVTFPIPDLQQYYKSNPGHYLGHLIGHEGPGSLLSELKSKGWVNTLVGGQKEGARGFMFFIINVDLTEEGLLHVEDIILHMFQYIQKLRAEGPQEWVFQECKDLNAVAFRFKDKESPRGYTSKIAGKLHYYPLNGVLTAEYLLEEFRPDLIDMVLDKLRPENVRVAIVSKSFEGKTDRTEQWYGTQYKQEAIPEDVIQKWQNADLNGKFKLPTKNEFIPTNFEILALEKDATPYPALIKDTAMSKLWFKQDDKFFLPKACLNFEFFSPFAYVDPLHCNMAYLYLELLKDSLNEYAYAAELAGLSYDLQNTIYGMYLSVKGYNDKQPILLKKITEKMATFEIDKKRFEIIKEAYMRSLNNFRAEQPHQHAMYYLRLLMTEVAWTKDELKEALDDVTLPRLKAFIPQLLSRLHIEALLHGNITKQAALGVMQMVEDTLIEHAHTKPLLPSQLVRYREVQLPDRGWFVYQRRNEVHNNCGIEIYYQTDMQSTSENMFLELFCQIISEPCFNTLRTKEQLGYIVFSGPRRANGIQGLRFIIQSEKPPHYLESRVEAFLITMEKAIEDMTEEAFQKHIQALAIRRLDKPKKLSAECAKYWGEIISQQYNYDRDNIEVAYLKTLSKDDIIKFYKEMLAVDAPRRHKVSVHVLAREMDSCPVVGEFPSQNDINLSEAPPLPQPEVIHNMTEFKRGLPLFPLVKPHINFMAAKL | 1.7 ± 0.2 | 21.3 ± 2.4 mM | 0.0783 ± 0.005 s⁻¹ | 42.3 ± 3.2 nmol/min/mg | about 15% | lower fluorescent yield |  |  | essentially the same
